# Measurements: publication PMC3506182 (Cancer research, 2012)
# T1: recombinant human CCN6 (rhCCN6) protein, full length (human, UniProt O95389 24-354)
# T1 sequence (looked up): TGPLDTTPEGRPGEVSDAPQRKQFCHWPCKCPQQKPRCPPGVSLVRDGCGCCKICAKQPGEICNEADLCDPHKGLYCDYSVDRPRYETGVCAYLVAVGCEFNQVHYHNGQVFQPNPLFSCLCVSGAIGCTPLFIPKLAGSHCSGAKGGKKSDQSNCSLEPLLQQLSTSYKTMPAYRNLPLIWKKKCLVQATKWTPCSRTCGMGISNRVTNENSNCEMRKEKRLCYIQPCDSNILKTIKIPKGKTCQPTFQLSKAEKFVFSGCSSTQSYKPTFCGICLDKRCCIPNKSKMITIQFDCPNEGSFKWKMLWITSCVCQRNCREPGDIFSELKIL
# Biological target: T1, recombinant human CCN6 (rhCCN6) …
# Assay: SPR
binder,measurement,value
"disulfide linked homodimer of biotin labeled rhBMP4 (Bio-BMP4) (ligand, human, UniProt P12644 293-408, looked up, biotin label (site not stated)) SPKHHSQRARKKNKNCRRHSLYVDFSDVGWNDWIVAPPGYQAFYCHGDCPFPLADHLNSTNHAIVQTLVNSVNSSIPKACCVPTELSAISMLYLDEYDKVVLKNYQEMVVEGCGCR",Kd,200 nM
